From paper PMC7888582 (Protein Science : A Publication of the Protein Society, 2021)

Columns and labels:
Experiment in all cases: SEC
[1] = molecular target: GGGPS of Nitrososphaera viennensis (nvGGGPS) (Nitrososphaera viennensis)
[2] = molecular target: mtGGGPS_W141A (Methanothermobacter thermautotrophicus)
[3] = molecular target: mtGGGPS_W141H (Methanothermobacter thermautotrophicus)
[4] = molecular target: the molecule itself

“GGGPS of Nitrososphaera viennensis (nvGGGPS) (enzyme)” gave a stoichiometry N [1] of 6.

mtGGGPS_W141A (enzyme) gave a stoichiometry N [2] of 2.

Work on mtGGGPS_W141H (enzyme) yielded a stoichiometry N [3] of 6.

B1: wild-type Methanothermobacter thermautotrophicus GGGPS (mtGGGPS) (enzyme)
chain: MKVEDYFHDILRERKIHLTLIDPEEQTPEEAVEIARAAIRGGTDGIMLGGSTTDSSELDNTARALRENIDVPIILFPGNTTGVSRYADAIFFMSLLNSTNPYWIIGAQALGAATVKKMGIEALPMGYLVVEPGGTVGWVGDTKPVPRNKPDIAAAYAMAAEFLGMRLFYLEAGSGAPEHVPEEMIALVKRCTDQILIVGGGIRSGEDAARVAGAGADVVVTGTVVENSDNVEDKIREIVEGMGSV
With B1 the “stoichiometry N” value [4] was 6.
